Test results as given in publication PMC11343739.

What was measured:
[1] = nuclear/cytoplasmic fractionation WB and IF; conditions: glycan lost; control: Flag-EP300-WT
[2] = anti-Flag WB of cell fractions; conditions: glycan lost; control: Flag-EP300-WT
[3] = CHX chase, WB, 786-O cells; conditions: glycan lost; control: Flag-EP300-WT
[4] = WB of endogenous EP300, 786-O and Caki-1; conditions: glycan lost; control: untreated

EP300: S900A
localisation_or_trafficking [1]: no change | expression_or_secretion [2]: changes | degradation_or_half_life [3]: decreases

EP300: OSMI-1
expression_or_secretion [4]: decreases
